What was measured:
[1] = Stability of rhEGF in soymilk, read out by EGFR bioactivity in Hela cells; assay type: physicochemical; details: in soymilk over 24 hours; bioactivity compared with control rhEGF; FIG. 5B
Experimental: (§1) Hela cells (obtained from American Tissue Culture Collection) were cultured in Minimum Essential Media (MEM) complemented with 10% Fetal Bovine Serum (FBS), 100 units/ml penicillin, and 100 μg/ml streptomycin. For western blotting assay, cells grown in 6-well plate were kept in serum free MEM media for 24 hours. Cells were then either kept in serum free medium (control) or stimulated with soymilk alone, soy EGF or commercial recombined hEGF for different time period as indicated. Cells were lysed by directly adding 1×SDS sample buffer (50 mM Tris-HCl, pH 6.8, 10% glycerol, 2% SDS and 5% 13-ME) to the cells after washing 3 times with 1×PBS. EGF bio-activity was determined via EGFR phosphorylation and down-stream AKT phosphorylation. Total EGFR was also measured since EGFR is known to undergo internalization when stimulated with EGF. Antibodies used in western blot are anti-p-EGFR (Tyr1068) (#2234, Cell Signaling Technology), anti-total EGFR (#06-847, Millipore), anti-p-AKT (#4060, Cell Signaling Technology) and anti-Lamin B1 (#13435, Cell Signaling Technology). […] EGFR was labeled using anti-EGFR antibody (#4267, Cell Signaling Technology) and detected with Alexa Fluor 594 Goat anti-rabbit IgG (#A11012, life technology). […]

Hela cell EGFR [2] = biological target: T1, Hela cell EGFR (Homo sapiens, UniProt P00533); test: EGF bioactivity in Hela cells by western blotting (pEGFR, total EGFR); assay type: cell-based; details: for overall EGF bioactivity: internalization, degradation and phosphorylation of EGFR: HeLa cells, compared with commercial rhEGF
T1 construct: soybean produced hEGF induces a rapid phosphorylation of Hela cell EGFR; endogenous in cells; host or cells: HeLa cells (American Tissue Culture Collection)
Experimental: Hela cells (obtained from American Tissue Culture Collection) were cultured in Minimum Essential Media (MEM) complemented with 10% Fetal Bovine Serum (FBS), 100 units/ml penicillin, and 100 μg/ml streptomycin. For western blotting assay, cells grown in 6-well plate were kept in serum free MEM media for 24 hours. […] Cells were lysed by directly adding 1×SDS sample buffer (50 mM Tris-HCl, pH 6.8, 10% glycerol, 2% SDS and 5% 13-ME) to the cells after washing 3 times with 1×PBS. EGF bio-activity was determined via EGFR phosphorylation and down-stream AKT phosphorylation. Total EGFR was also measured since EGFR is known to undergo internalization when stimulated with EGF. Antibodies used in western blot are anti-p-EGFR (Tyr1068) (#2234, Cell Signaling Technology), anti-total EGFR (#06-847, Millipore), anti-p-AKT (#4060, Cell Signaling Technology) and anti-Lamin B1 (#13435, Cell Signaling Technology). For immunocytochemistry assay, cells were grown on coverslip in 6-well plate and kept in serum free media for 24 hours before stimulation, cells were then either kept in serum free media (control) or stimulated with human or soy EGF for 6 hours. Cells were washed with PBS and fixed with 4% formalin. EGFR was labeled using anti-EGFR antibody (#4267, Cell Signaling Technology) and detected with Alexa Fluor 594 Goat anti-rabbit IgG (#A11012, life technology). The cell nuclei were shown using mounting medium with DAPI (#H-1200, Vectorshield).

Hela cell EGFR [3] = biological target: T1, Hela cell EGFR; test: Immunocytochemistry assay of EGFR internalization in Hela cells; assay type: cell-based; details: Hela cells treated 6 hours; FIG. 5C
Experimental: as §1

Substance	degradation of EGF in soymilk [1]	overall EGF bioactivity: internalization, degradation and phosphorylation of EGFR (Hela cell EGFR [2]; listed as EGF protein produced in soybean seed)	overall EGF bioactivity: internalization, degradation and phosphorylation of EGFR (Hela cell EGFR [2]; listed as soybean-produced hEGF)	internalization and degradation of EGFR (decrease in abundance by immunoblot) (Hela cell EGFR [2]; Hela cells, 0.1 μg/ml, FIG. 5B)	EGFR phosphorylation (pEGFR) (Hela cell EGFR [2]; Hela cells, soymilk from ShEGF soybeans at 0.1, 0.05, 0.025 μg/ml, FIG. 5A)	EGFR degradation (Hela cell EGFR [2]; Hela cells, soymilk from seeds producing ShEGF at 0.1, 0.05, 0.025 μg/ml, FIG. 5A)	internalization of the EGFR (immunohistochemical assay) (Hela cell EGFR [3])
rhEGF: commercial recombinant human EGF	not degraded in soymilk over 24 hours	–	–	–	–	–	–
ShEGF: human EGF produced in transgenic soybean seeds from a synthetic soybean codon optimized hEGF gene with N-terminal ER signal (SEQ ID NO: 1) (SLSSAENSDSECPLSHDGYCLHDGVCMYIEALDKYACNCVVGYIGERCQYRDLKWWELR; Modified EGF DNA sequence)	–	bioactive and comparable to commercially available hEGF	indistinguishable from the bioactivity of commercial rhEGF	induces an internalization and degradation of EGFR	induced pEGFR comparable to control rhEGF	induced concentration-dependent EGFR degradation comparable to the effect of rhEGF	induces internalization of the EGFR comparable to that from control rhEGF
